Patent US8524231

Legend:
[1] = target: biotinylated human IL-1Beta (human) (UniProt P01584); experiment: competition ELISA: periplasmic Fab extract plus biotinylated IL-1Beta on coated mouse mAb (competitor); reduced signal means competition
[2] = target: biotinylated human IL-1Beta (human) (UniProt P01584); experiment: ELISA based competition assay against the antagonistic reference mouse mAb (competitor)
[3] = target: biotinylated human IL-1Beta (human) (UniProt P01584); experiment: cell-based or functional assay

Chain of biotinylated human IL-1Beta (human) (P01584 117-269 limits assumed): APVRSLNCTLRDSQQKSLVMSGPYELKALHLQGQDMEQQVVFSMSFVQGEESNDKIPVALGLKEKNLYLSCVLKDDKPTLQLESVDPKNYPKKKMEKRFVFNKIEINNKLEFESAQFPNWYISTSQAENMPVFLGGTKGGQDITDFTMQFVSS

signal (OD) in the competition assay [1] [OD] | concentration at which competition is seen [2] [µg/mL] | IC50 in the bioassay [3] [µg/mL] | Binder
0.444 | – | – | antagonistic Fab 1B3 (Fab, part only; not given: lambda light chain, constant domains, V domains shown, not shown: a dimerising Fc or GST) VH: EVQLVQSGAELRNPGASVKVSCKASGYTFTSYYIDWVRQAPGQGLEWMGRIDPEDGGTKYAQKFQGRVTFTADTSTSTAYVELSSLRSEDTAVYYCARSGRYELDYWGQGTQVTVSS
0.498 | – | – | Fab 1G1 (clone related to 1B3) (Fab, part only; not given: light chain, V domains shown, part only) VH: EVQLVQSGAELRNPGASVKVSCKASGYTFTSYYTDWVRQAPGQGLEWMGRIDPEDGDTKYAQKFQGRVTFTADTSTSTAYVELTSLRSEDTAVYYCLRSGAYELDYWGQGTQVTVSS
0.386 | > 50 | 3 | antagonistic Fab 1C3 (Fab, part only; not given: lambda light chain, constant domains, V domains shown, not shown: a dimerising Fc or GST) VH: EVQLVESGGGLVQPGGSLRLSCAASGFTFSSYWMYWVRQAPGKGLEWVSAINTGGGRTYYADSVKGRFTISRDNAKNTLYLQMNSLKSEDTAVYYCAKGTSADGSSWYVPADPYDYWGQGTQVTVSS
0.205 | – | – | antagonistic Fab 1A1 (Fab, part only; not given: lambda light chain, constant domains, V domains shown, not shown: a dimerising Fc or GST) VH: EVQLVESGGGLVQPGGSLRLSCAASGFTFDDYAMSWVRQAPGKGLEWVSTISWNGGATYYAESMKGRFTISRDNAKNTLYLQMNSLKSEDTAVYYCAKPYYSDYVGVEYDYWGQGTQVTVSS
